Publication PMC7090148 (2020)

B1: Mouse OFD1, wild type [mouse] / NTAP-tagged TRAPPC12 [mouse] (parent complex)
chain 1: MAQSNMPHKSDVLSQDELRKKLYQTFKDRGVLDTLQTQLRNQLIHELMHPVLSGEVKPPSISVEGSALLIGASNSLVADHLQRCGYEYSLSVFFPESGLAKEKIFTMQDLLQLIRINPSSSLYKSLISGFDKENKKGFLMSFLKELAEYYQAKESCDAETQTSTTFPSQVSLAEKFQLIDAQFADGFPHRSKLESLETKLNEYKKEVQHQLQVEMCHKLKYFREAEITKVKMEERRKYEKELAEFQNEFERTCQAKNEALISQEKNSLERIKKHREMESKEIYAQRQLLLNDIALLRGREAELKERIETFELTQKLQEEKIKSEAEALERREQNLKNIEDTYDQKLKTELLKYQLELKDDYITRTNKLLEEERKNKEKTIHLQEELTVINSKKEELSKSVKHMKEVELELESVKAQFLAISKQNHLLNEKVREMSDYSQLKEEKVELQAQNKLLKLQLEETRNENLRLLDRITQPPPELVIFQKELQKTEKAMELEHKDFETHRQALEKQLQSEIENSAQLRTQIAEYDASVKRLTVQVAELKSQLKQTQIALENEVYRNPKHSLIHSLSGLLLSGKMAPHSEDKSGDFLNVPLEQNKVIAGAVMSRVPPYVNTATEASSPESDFEFIASSTKAKVRELEQEAERLEKAFRTYYQRATQNPSTSPQPAKSPPSVNSVAALRSIASSSMDRPVSAEDRVVSEQPLGDMLKEEMSDMSKAFMGSVVSRPRRTSSSTRLSSTPHPKSRRSLDNEMYLEGLGRLHMTSSSPLLDRVSASPAASPSPCPERTAQASPVPSRHSFSGLPEQNACLYQRQTETQDKSELSNVDKQSLKDEKFEPPFRWNKTEQFEAEGLHPAGDMPGIDFAVATQSSRLISYDYPSAVQSQTGEQDEQELWELHMKERRQREEQRHNERQEALERERRELGKLEQERRMIEESLKMEMEEELEKSVQDQKDKSAHCENTLEKYMKIIQQRQEESNADKSSKKSGKECSLVDMMMPSDKDESSPGFSHEEPDDMW
chain 2: METAKDGEQSPSEASPSAQAGPENIPEPMSREEESQPLYHEETIDLGGDEFASEENEPTSEGSHNFGDKLNEHMMESVLISDSPNNSEGDVGDLGCLQDVGEPPRGATDHRLPSSTDKEVVDTLSNGSETDGDDTPRDISDMTPDSRASLKEDSTQEDVTSMPALENAATEEVGPKDSLAPREEQTSEVSSNQSSSKDEPLPVCTIFSQATATPSQPHLFLQDGFESQMVKSPSFSSTSETSAKTPPPMVQPSPSLSTFFGDTMSSNSLASDFFDSFTTSTFISVSNPNAGSPVPEKLSSLTAPVGEKSPDSTSPSYSTRMDRSESGVSRAPLDVPESPKPFSQIQAVFAGSDDPFATALSMSEMDRRNDAWLPSQATREVLMSVATQQYGTVFIDKENLTMPGLKFDNIQGDAVKDLMLRFLGEKAAAKRQVLNASSVEQSFVGLKQLISCRNWRAAVDLCGRLLTAHGQGYGKNGLPTSHTTDSLQLWFVRLALLVKLGLFQNAEMEFEPFGNLDQPDLYYEYYPHVYPGRRGSMVPFSMRILHAELQQYLGNPQESLDRLHRVKTVCSKILANLEQGLAEDGGLSSVTQESRQASVQLWRSRLGRVLYSMANCLLLMKDYVLAVDAYLTVIKYYPEQEPQLLSGIGRILLQIGDIKTAEKYFQDVEKVTQKLDGLQGKIMVLMNRAFLYLGQNNFAEAHKFFTEILRMDPTNAVANNNAAVCLLYLGKLKDSLRQLEAMVQQDPRHYLHESVLFNLTTMYELESSRSMQKKQSLLEAVASKEGDSFNTQCLKLA

Variants of: B1
Test: co-IP (IP: anti-Myc, immunoblot); IP: anti-Myc; 0.5% input; parent: 1

Variant | ratio to parent
chain 1 A78T | 0.97
chain 1 G137S | 0.91

Now from value to variant:

ratio to parent | Variant
0.98 | chain 1 S435R
0.39 | chain 1 S73F
